Experimental data published in patent US9701748B2, “Humanized anti-CD22 antibody” (IMMUNOMEDICS, INC., priority 2014, dated 2017).
“Also recorded” adds a separate entry of the source. Read-outs that look alike come from different tables or passages of the source. Each block holds one molecule with its values, some of them ahead of it.

Legend:
[1] = test system: RII isoform of PKA compared with the RI isoform; settings: 2006, cited from earlier work; for isoform preference of peptide antagonists: Stokka et al.
[2] = target: DDD of the RII form of PKA (Homo sapiens, UniProt P13861); settings: Hundsrucker et al., 2006, cited from earlier work
Sequence of DDD of the RII form of PKA (P13861 whole entry): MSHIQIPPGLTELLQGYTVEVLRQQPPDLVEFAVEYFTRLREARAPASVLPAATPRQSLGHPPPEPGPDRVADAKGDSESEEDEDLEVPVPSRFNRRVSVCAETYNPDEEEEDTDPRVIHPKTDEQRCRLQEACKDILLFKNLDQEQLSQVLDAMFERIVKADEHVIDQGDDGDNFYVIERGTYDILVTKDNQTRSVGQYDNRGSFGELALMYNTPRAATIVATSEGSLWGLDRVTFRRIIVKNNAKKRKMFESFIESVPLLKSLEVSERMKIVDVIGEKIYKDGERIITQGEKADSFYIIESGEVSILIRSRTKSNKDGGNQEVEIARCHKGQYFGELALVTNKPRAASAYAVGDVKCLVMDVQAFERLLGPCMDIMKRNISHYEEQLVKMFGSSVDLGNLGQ

[3] = test system: B cells gated from PBMCs of healthy donors; assay: Trogocytosis: surface antigen levels on B cells after overnight treatment of PBMCs, flow cytometry; assay type: cell-based, human
Method: Peripheral blood mononuclear cells (PBMCs) obtained from healthy donors were incubated overnight (16-24 h) with 10 μg/mL of either epratuzumab or an isotype control mAb (hMN-14) and the relative levels of various antigens on the surface of the B cells were analyzed by flow cytometry. PBMCs from heparinized whole blood of normal donors were isolated by density gradient centrifugation on UNI-SEP tubes (Novamed Ltd, Israel). PBMCs were reconstituted in RPMI media supplemented with 10% heat inactivated fetal bovine serum and plated at a cell density of 1.5×10^6/mL in non-tissue culture treated 48-well plates. […] Stained cells were analyzed by flow cytometry on a FACSCALIBUR® (BD Biosciences) using Flowjo (V7.6.5) software. Initially, the lymphocyte population was gated by side vs. forward scattering, and B cells were further gated from this population with the CD19 signal. The mean fluorescence intensity (MFI), obtained with fluorochrome-conjugated antibodies to various cell surface antigens, on the gated B cells was calculated following treatment with epratuzumab, hMN-14 or without antibody. PBMCs from 16 healthy donors were assessed in various experiments.

[4] = test system: subcutaneous Ramos Burkitt lymphoma tumors; assay: Therapeutic efficacy in mice bearing a human Burkitt lymphoma xenograft (Ramos); assay type: in vivo, NCr athymic nu/nu mice
Method: A humanized anti-human CD22 monoclonal antibody, hRFB4, was conjugated with SN-38 as described in U.S. Pat. Nos. 7,999,083 and 8,080,250 (the Examples section of each of which is incorporated herein by reference) at a drug to antibody ratio of 5.71. This antibody drug conjugate (ADC) was tested in mice bearing subcutaneous (s.c.) Ramos Burkitt lymphoma tumors. Efficacy was compared to another anti-CD22 SN-38-ADC, hLL2-SN-38.
To perform this study, 5 week-old female NCr athymic nu/nu mice were injected s.c. with Ramos cells that were harvested from tissue culture (1×10^7 cells per mouse). Once tumors reach approximately 0.2 cm^3 in size, they were divided up into treatment groups. Mice received 250 μg hRFB4-SN-38 i.p. twice weekly for two weeks. Likewise, mice received hLL2-SN-38 or a non-tumor targeting anti-CEACAM5 SN-38-ADC (hMN14-SN-38) at the same dose/schedule as the hRFB4-SN-38. Saline control mice received 100 μL i.p. injections twice weekly for two weeks. Tumors were measured and mice weighed twice weekly. Animals were euthanized for disease progression if their tumor volumes exceeded 1.0 cm^3 in size.

[5] = test system: patients with primary Sjögren's syndrome; assay type: in vivo, human
Method: Patients with primary Sjögren's syndrome receive 8 doses of 20, 40, 80 or 160 mg hRFB4 injected s.c. every week or every two weeks.

[6] = test system: rheumatoid arthritis patients who have failed at least one TNFα inhibitor; assay type: in vivo, human
Method: Patients who have failed therapy with at least one TNFα inhibitor receive 4 doses of 40, 80, 160 or 320 mg hRFB4 injected s.c. every week or every two weeks. The antibody is either administered alone or in conjunction with oral methotrexate (10-25 mg/week).

Daudi cells = assay: Dose-response of trogocytosis of CD22 and CD19 from Daudi cells (FIG. 6A, 6B); assay type: cell-based, human
[7] = test system: patients with SLE who have failed at least one previous therapy; assay: Combination therapy of SLE with hRFB4 and hLL2; assay type: in vivo, human; settings: single antibody alone, same dosage and schedule
Method: Patients with SLE who have failed at least one previous therapy receive combination therapy with 160 mg each of hRFB4 and hLL2 (epratuzumab), administered s.c. in 2 injections weekly for four weeks. Control groups receive hRFB4 alone, hLL2 alone or irrelevant antibody (hMN-14) at the same dosage and schedule. […] All serum samples evaluated for anti-human antibodies (HAHA) are negative.

CD22 = target: T1, CD22 (Homo sapiens, UniProt P20273); assay: Binding affinity for CD22+ Daudi cells determined by ELISA (FIG. 2)
T1 construct: endogenous in cells; host or cells: Daudi (Burkitt lymphoma) cells
Method: FIG. 2. Comparative binding affinity for CD22+ Daudi cells of hLL2 IgG, hRFB4 IgG, chimeric RFB4 conjugated to AD2 peptide, and hMN-14 IgG, as determined by ELISA. The binding affinity of hRFB4 as determined for Daudi cells is about 10-fold higher than that of hLL2 and about 30% higher than the chimeric RFB4.
The hRFB4 antibody was prepared as described above, resulting in a humanized anti-CD22 antibody with variable region sequences as shown in FIG. 1A and FIG. 1B (SEQ ID NO:7 and SEQ ID NO:8). After expression, the binding affinity or CD22+ Daudi cells was compared to that of the hLL2 antibody, comprising the same FR and constant region sequences but different CDR sequences, and to the chimeric RFB4 antibody, comprising the same CDR sequences but different FR and constant region sequences.

[8] = test system: patients with previously untreated or relapsed hairy cell leukemia; assay type: in vivo, human
Method: Patients with previously untreated or relapsed hairy cell leukemia receive 4 doses of 40, 80, 160 or 320 mg hRFB4 injected s.c. every week or every two weeks.

[9] = test system: patients with moderately active SLE; assay: Open-label study of hRFB4 in systemic lupus erythematosus; assay type: in vivo, human
Method: An open-label, single-center study of patients with moderately active SLE (total British Isles Lupus Assessment Group (BILAG) score 6 to 12) is conducted. Patients receive dosages of hRFB4 of 50, 100, 200, and 400 mg subcutaneously (SC) every week for 6 weeks. Evaluations include safety, SLE activity (BILAG), blood levels of B and T cells, human anti-RFB4 antibody (HAHA) titers, and levels of cell surface CD19, CD20, CD21, CD22 and CD79b on B cells. It is determined that a dosage of 50-100 mg per SC injection results in optimal depletion of B cell CD19, while producing less than 50% depletion of normal B cells. Subsequently, a subcutaneous dose of 100 mg hRFB4 is administered to a new group of patients with moderately active SLE.

Molecule: FEELAWKIAKMIWSDVFQQC [PV-38]
isoform preference of peptide antagonists [1]: higher affinity for RI

Molecule: QIEYVAKQIVDYAIHQA [SuperAKAP-IS]
selectivity for the RII isoform of PKA compared with the RI isoform ([1]; Gold et al.): five order of magnitude higher selectivity

Molecule: PEDAELVRLSKRDVENAVLKAVQQY [AKAP7δ-L308D-pep]
affinity for the RII DDD sequence [2]: particularly high affinities

Molecule: hMN-14: anti-CEACAM5 antibody used as isotype control [reference compound]
effect on levels of the tested surface proteins ([3]; isotype control mAb, 10 μg/mL, overnight): did not affect the levels of any of the tested proteins

Molecule: PEDAELVRTSKRLVENAVLKAVQQY [AKAP7δ-L304T-pep]
affinity for the RII DDD sequence [2]: particularly high affinities

Molecule: DLIEEAASRIVDAVIEQVKAAGAY [Ht-31]
isoform preference of peptide antagonists [1]: greater affinity for the RII isoform of PKA

Molecule: LEQYANQLADQIIKEATE [RIAD]
isoform preference of peptide antagonists [1]: higher affinity for RI

Molecule: hMN14-SN-38: non-tumor targeting anti-CEACAM5 SN-38-ADC
median survival time (MST) ([4]; 250 μg i.p. twice weekly for two weeks, days post-therapy initiation, death = tumor exceeding 1.0 cm^3): 5 days

Molecule: QIEYLAKQIVDNAIQQA [AKAP-IS]
Kd ([2]; Alto et al., 2003, read-out: binding constant for DDD): 0.4 nM | affinity for the RII DDD sequence [2]: particularly high affinities

Molecule: PEDAELVRLSKRLVENAVLKAVQQY [AKAP7δ-wt-pep]
affinity for the RII DDD sequence [2]: particularly high affinities

Molecule: hLL2-SN-38
survival compared with hMN14-SN-38 control group ([4]; 250 μg i.p. twice weekly for two weeks): no significant difference | mice tumor free when the study ended ([4]; day 87, 250 μg i.p. twice weekly for two weeks): 1 of 6 | survival compared with saline control ([4]; log-rank test, P=0.0012): significantly better than saline control

Kd (CD22; CD22+ Daudi cells, FIG. 2): 0.2 nM | binding affinity, higher than the chimeric RFB4 (CD22; Daudi cells, versus chimeric RFB4 conjugated to AD2 peptide): about 30%
B1: hRFB4: humanized anti-CD22 antibody with variable region sequences SEQ ID NO:7 and SEQ ID NO:8 (antibody, V domains shown)
VH: QVQLVQSGAEVKKPGSSVKVSCKASGFTFSIYDMSWVRQAPGQGLEWVAYISSGGGTTYYPDTVKGRFTITADESTNTAYMELSSLRSEDTAFYFCARHSGYGSSYGVLFAYWGQGTLVTVSS
VL: DIQLTQSPSSLSASVGDRVTISCRASQDISNYLNWYQQKPGKAPKLLIYYTSILHSGVPSRFSGSGSGTDYTFTISSLQPEDIATYYCQQGNTLPWTFGGGTKVQIKR
median corticosteroid after treatment ([5]; 80 mg group, six months after treatment, decrease from 17.5 mg/day): 8.3 mg/day | B-cell depletion ([5]; all dosage levels): Transient B-cell depletion | human anti-hRFB4 antibody (HAHA) in serum samples ([5]; in vivo): negative | objective responses ([5]; s.c., all dose levels): observed at all dose levels | depletion of B cell surface levels of CD19, CD20, CD21, CD22 and CD79b ([6]; 80 mg): moderate level | depletion of B cell surface levels of CD19, CD20, CD21, CD22 and CD79b ([6]; 160 mg): much higher level | B-cell depletion ([6]; all dosage levels): Transient B-cell depletion | human anti-hRFB4 antibody (HAHA) in serum samples ([6]; in vivo): negative | release pattern of s.c. antibody ([6]; in vivo, sc): slow release pattern over several days | objective responses ([6]; s.c., all dose levels): observed at all dose levels | optimum dosage ([6]; six months after treatment): 160 mg | minimal concentration to induce the maximal level of trogocytosis of CD19 (Daudi cells; CD19 from Daudi cell, FIG. 6B): 1 ng/mL | minimal concentration to induce the maximal level of trogocytosis of CD22 (Daudi cells; CD22 from Daudi cell, FIG. 6A): 1 ng/mL | concentration inducing the maximal level of trogocytosis of CD19 and CD22 (Daudi cells; dose-response curve, FIG. 6A and 6B): 1 ng/mL | objective responses [7]: Objective responses are observed | depletion of B cell surface levels of CD19, CD20, CD21, CD22 and CD79b ([8]; 40 mg): moderate level | depletion of B cell surface levels of CD19, CD20, CD21, CD22 and CD79b ([8]; 80 mg): much higher level | B-cell depletion ([8]; all dosage levels): Transient B-cell depletion | objective responses (mostly partial responses) ([8]; dose of 80 mg): 30% | human anti-hRFB4 antibody (HAHA) in serum samples ([8]; in vivo): negative | release pattern of s.c. antibody ([8]; in vivo, sc): slow release pattern over several days | optimum dosage ([8]; six months after treatment): 80 mg | patients with BILAG decreases continuing to at least 18 weeks ([9]; 100 mg SC): 92% | decrease of total BILAG scores ([9]; 100 mg SC, all patients): at least 50% | depletion of normal B cells ([9]; 50-100 mg per SC injection, weekly for 6 weeks): less than 50% | immunogenicity ([9]; SLE patients): no evidence of immunogenicity | tolerability ([9]; SLE patients): well tolerated | patients with improvement in at least one BILAG B- or C-level disease activity ([9]; at 6, 10 and 18 weeks): 93% | average decrease of B-cell levels ([9]; at 18 weeks): 35% | patients with multiple BILAG B involvement at baseline who completely resolved all B-level disease activities ([9]; by 18 weeks): 3 patients | trogocytosis (MFI of CD22, CD19, CD21, CD79b on B cells) compared with hLL2 ([3]; overnight treatment of PBMCs, FIG. 4A-4D): more efficacious than the hLL2 antibody; also recorded: as capable of mediating trogocytosis as hLL2
